Reference: patent publication US20150037348A1 (AbbVie / Abbott, published 2015)
Several values for one entry are separate records, joined by “and”; a condition that tells them apart may be missing. Identical values can stand only once.

Experiments:
[1] = target: T1, human IL-12 (human, UniProt P29459 23-219; P29460 23-328); test: cell-based or functional assay
T1 sequence (looked up) 1: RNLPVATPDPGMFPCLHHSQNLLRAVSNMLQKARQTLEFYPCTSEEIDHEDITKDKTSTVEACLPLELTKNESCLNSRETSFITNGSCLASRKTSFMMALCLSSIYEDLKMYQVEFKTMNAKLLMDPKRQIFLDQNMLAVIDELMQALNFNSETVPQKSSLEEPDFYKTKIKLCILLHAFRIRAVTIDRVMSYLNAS
T1 sequence (looked up) 2: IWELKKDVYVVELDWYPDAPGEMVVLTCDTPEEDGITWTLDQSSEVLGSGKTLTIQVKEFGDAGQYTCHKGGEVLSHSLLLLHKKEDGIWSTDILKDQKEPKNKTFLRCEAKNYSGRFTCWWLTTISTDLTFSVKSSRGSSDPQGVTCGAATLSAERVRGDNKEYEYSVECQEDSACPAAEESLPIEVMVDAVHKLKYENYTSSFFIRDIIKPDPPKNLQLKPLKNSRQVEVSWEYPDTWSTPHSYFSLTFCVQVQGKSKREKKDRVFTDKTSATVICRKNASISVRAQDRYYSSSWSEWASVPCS

[2] = target: T1, human IL-12; test: SPR (BIAcore), IL-12 chip
Text: The system utilizes the optical properties of SPR to detect alterations in protein concentrations within a dextran biosensor matrix. Proteins are covalently bound to the dextran matrix at known concentrations. […] To determine the off rate (koff), on rate (kₒₙ), association rate (Ka) and dissociation rate (Kd) constants, BIAcore kinetic evaluation software (version 2.1) was used.

[3] = target: T2, recombinant human IL-12 (rhIL-12) (human, UniProt P29459 23-219; P29460 23-328); test: cell-based or functional assay
T2 sequence (looked up) 1: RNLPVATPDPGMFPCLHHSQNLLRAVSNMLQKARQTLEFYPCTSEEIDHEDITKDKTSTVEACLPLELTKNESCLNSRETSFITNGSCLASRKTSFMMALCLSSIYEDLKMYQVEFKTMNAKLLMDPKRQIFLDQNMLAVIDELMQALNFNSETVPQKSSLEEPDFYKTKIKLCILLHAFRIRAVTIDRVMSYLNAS
T2 sequence (looked up) 2: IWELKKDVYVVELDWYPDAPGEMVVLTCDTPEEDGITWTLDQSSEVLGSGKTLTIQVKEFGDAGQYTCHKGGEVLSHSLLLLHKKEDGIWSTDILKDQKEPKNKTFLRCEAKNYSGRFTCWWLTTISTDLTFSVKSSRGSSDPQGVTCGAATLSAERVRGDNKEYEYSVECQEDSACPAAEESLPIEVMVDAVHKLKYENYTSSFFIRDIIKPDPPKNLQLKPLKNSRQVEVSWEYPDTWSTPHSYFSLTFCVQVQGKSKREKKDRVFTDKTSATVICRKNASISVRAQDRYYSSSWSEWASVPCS

[4] = target: T2, recombinant human IL-12 (rhIL-12); test: BIAcore SPR, IL-12 on chip
[5] = target: T2, recombinant human IL-12 (rhIL-12); test: receptor binding assay, 125I-hIL-12 on PHA blasts
Method: (§1) PHA blast cells isolated as described above, were washed once and resuspended in binding buffer to a cell density of 2×10⁷ cells/ml. […] The cell pellet was examined for cell bound radioactivity using a gamma counter. […] Incubations were carried out in duplicate.

[6] = target: T1, human IL-12; test: RB assay: 125I-hIL-12 binding to PHA blasts
Method: as §1

Binder	PHA assay IC50 [1]	koff [2]	PHA assay IC50 [3]	koff [4]	IC50 [5]	IC50 [6]
26-1 (scFv, V domains shown, scFv; also called 26-1 (2, 3)) VH: QVQLVQSGGGVVQPGRSLRLSCAASGFTFSSYGMHWVRQAPGKGLEWVAFIRYDGSNKYYADSVKGRFTISRDNSKNTLYLQMKSLRAEDTAVYYCTTHGSHDNWGQGTMVTVSS VL: SYVLTQPPSVSGTPGQRVTISCSGGRSNIGSNTVKWYQQLPGTAPKLLIYGNDQRPSGVPDRFSGSKSGTSASLAITGVQAEDEADYYCQSYDSSLWGSRVFGTGTKVTVL	60 nM	0.0074 s⁻¹				
136-15 germline (scFv, V domains shown) VH: QVQLVESGGGVVQPGRSLRLSCAASGFTFSSYGMHWVRQAPGKGLEWVAFIRYDGSNKYYADSVKGRFTISRDNSKNTLYLQMNSLRAEDTAVYYCKTHGSHDNWGQGTMVTVSS VL: QSVLTQPPSVSGAPGQRVTISCSGSRSNIGSNTVKWYQQLPGTAPKLLIYGNDQRPSGVPDRFSGSKSGTSASLAITGLQAEDEADYYCQTYDKGFTGSSVFGTGTKVTVL	6 nM	0.00046 s⁻¹				
70-1 (scFv, V domains shown, scFv) VH: QVQLVQSGGGVVQPGRSLRLSCAASGFTFSSYGMHWVRQAPGKGLEWVAFIRYDGSNKYYADSVKGRFTISRDNSKNTLYLQMKSLRAEDTAVYYCTTHGSHDNWGQGTMVTVSS VL: SYVLTQPPSVSGTPGQRVTISCSGGRSNIGSNTVKWYQQLPGTAPKLLIYGNDQRPSGVPDRFSGSKSGTSASLAITGVQAEDEADYYCQSYDSSLRGSRVFGTGTKVTVL	200 nM	0.0134 s⁻¹				
Y38 (scFv, V domains shown, scFv clone) VH: QVQLVQSGGGVVQPGRSLRLSCAASGFTFSSYGMHWVRQAPGKGLEWVAFIRYDGSNKYYADSVKGRFTISRDNSKNTLYLQMKSLRAEDTAVYYCKTHGSHDNWGQGTMVTVSS VL: SYVLTQPPSVSGTPGQRVTISCSGGRSNIGSNTVKWYQQLPGTAPKLLIYGNDQRPSGVPDRFSGSKSGTSASLAITGVQAEDEADYYCQSYDRGTHPSITFGTGTKVTVL			2.6 nM	0.000508 s⁻¹	0.055 nM	
Y174 (scFv, V domains shown, scFv clone) VH: QVQLVQSGGGVVQPGRSLRLSCAASGFTFSSYGMHWVRQAPGKGLEWVAFIRYDGSNKYYADSVKGRFTISRDNSKNTLYLQMKSLRAEDTAVYYCKTHGSHDNWGQGTMVTVSS VL: SYVLTQPPSVSGTPGQRVTISCSGGRSNIGSNTVKWYQQLPGTAPKLLIYGNDQRPSGVPDRFSGSKSGTSASLAITGVQAEDEADYYCQSYDRGTTPAPEFGTGTKVTVL			2 nM	0.000755 s⁻¹	0.06 nM	
C6 (scFv, V domains shown, scFv clone) VH: QVQLVQSGGGVVQPGRSLRLSCAASGFTFSSYGMHWVRQAPGKGLEWVAFIRYDGSNKYYADSVKGRFTISRDNSKNTLYLQMKSLRAEDTAVYYCKTHGSHDNWGQGTMVTVSS VL: SYVLTQPPSVSGTPGQRVTISCSGGRSNIGSNTVKWYQQLPGTAPKLLIYGNDQRPSGVPDRFSGSKSGTSASLAITGVQAEDEADYYCQSYDRGQTPSITFGTGTKVTVL			10 nM	0.00107 s⁻¹	0.35 nM	
Y45 (scFv, V domains shown, scFv clone) VH: QVQLVQSGGGVVQPGRSLRLSCAASGFTFSSYGMHWVRQAPGKGLEWVAFIRYDGSNKYYADSVKGRFTISRDNSKNTLYLQMKSLRAEDTAVYYCKTHGSHDNWGQGTMVTVSS VL: SYVLTQPPSVSGTPGQRVTISCSGGRSNIGSNTVKWYQQLPGTAPKLLIYGNDQRPSGVPDRFSGSKSGTSASLAITGVQAEDEADYYCQSYDRGTDPAIVFGTGTKVTVL			4.3 nM	0.000617 s⁻¹	0.04 nM	
79-1 (scFv, V domains shown, scFv) VH: QVQLVQSGGGVVQPGRSLRLSCAASGFTFSSYGMHWVRQAPGKGLEWVAFIRYDGSNKYYADSVKGRFTISRDNSKNTLYLQMKSLRAEDTAVYYCTTSGSYDYWGQGTMVTVSS VL: SYVLTQPPSVSGTPGQRVTISCSGGRSNIGSNTVKWYQQLPGTAPKLLIYGNDQRPSGVPDRFSGSKSGTSASLAITGVQAEDEADYYCQSYDSSLWGSRVFGTGTKVTVL	600 nM					200 nM
78-34 (scFv, V domains shown, scFv) VH: QVQLVQSGGGVVQPGRSLRLSCAASGFTFSSYGMHWVRQAPGKGLEWVAFIRYDGSNKYYADSVKGRFTISRDNSKNTLYLQMKSLRAEDTAVYYCTTSGSYDYWGQGTMVTVSS VL: SYVLTQPPSVSGTPGQRVTISCSGGRSNIGSNTVKWYQQLPGTAPKLLIYGNDQRPSGVPDRFSGSKSGTSASLAITGVQAEDEADYYCQSYDRGFTGSRVFGTGTKVTVL	600 nM	0.0164 s⁻¹				200 nM
103-4 (scFv, V domains shown, scFv) VH: QVQLVQSGGGVVQPGRSLRLSCAASGFTFSSYGMHWVRQAPGKGLEWVAFIRYDGSNKYYADSVKGRFTISRDNSKNTLYLQMKSLRAEDTAVYYCTTHGSHDNWGQGTMVTVSS VL: SYVLTQPPSVSGTPGQRVTISCSGGRSNIVSNTVKWYQQLPGTAPKLLIYGNDQRPSGVPDRFSGSKSGTSASLAITGVQAEDEADYYCQSYDRGFTGARVFGTGTKVTVL	0.9 nM	0.00016 s⁻¹				0.086 nM
Y177 (scFv, V domains shown, scFv clone) VH: QVQLVQSGGGVVQPGRSLRLSCAASGFTFSSYGMHWVRQAPGKGLEWVAFIRYDGSNKYYADSVKGRFTISRDNSKNTLYLQMKSLRAEDTAVYYCKTHGSHDNWGQGTMVTVSS VL: SYVLTQPPSVSGTPGQRVTISCSGGRSNIGSNTVKWYQQLPGTAPKLLIYGNDQRPSGVPDRFSGSKSGTSASLAITGVQAEDEADYYCQSYDRGSHPTLIFGTGTKVTVL			1 nM	0.000661 s⁻¹	0.05 nM	
103-8 & 2 (scFv, V domains shown, scFv) VH: QVQLVQSGGGVVQPGRSLRLSCAASGFTFSSYGMHWVRQAPGKGLEWVAFIRYDGSNKYYADSVKGRFTISRDNSKNTLYLQMKSLRAEDTAVYYCKTHGSHDNWGQGTMVTVSS VL: SYVLTQPPSVSGTPGQRVTISCSGGRSNIGSNTVKWYQQLPGTAPKLLIYGNDQRPSGVPDRFSGSKSGTSASLAITGVQAEDEADYYCQTYDKGFTGSSVFGTGTKVTVL	1.5 nM	0.00053 s⁻¹				
AO3 (scFv, V domains shown, scFv clone; only the CDR3s are tied to it) VH: QVQLVQSGGGVVQPGRSLRLSCAASGFTFSSYGMHWVRQAPGKGLEWVAFIRYDGSNKYYADSVKGRFTISRDNSKNTLYLQMKSLRAEDTAVYYCKTHGSHDNWGQGTMVTVSS VL: SYVLTQPPSVSGTPGQRVTISCSGGRSNIGSNTVKWYQQLPGTAPKLLIYGNDQRPSGVPDRFSGSKSGTSASLAITGVQAEDEADYYCQSYDRGTHPLTMFGTGTKVTVL			0.4 nM	0.000304 s⁻¹	0.03 nM	
Y139 (scFv, V domains shown, scFv clone) VH: QVQLVQSGGGVVQPGRSLRLSCAASGFTFSSYGMHWVRQAPGKGLEWVAFIRYDGSNKYYADSVKGRFTISRDNSKNTLYLQMKSLRAEDTAVYYCKTHGSHDNWGQGTMVTVSS VL: SYVLTQPPSVSGTPGQRVTISCSGGRSNIGSNTVKWYQQLPGTAPKLLIYGNDQRPSGVPDRFSGSKSGTSASLAITGVQAEDEADYYCQSYDRGSHPALTFGTGTKVTVL			0.45 nM	0.000592 s⁻¹	0.03 nM	
G6 (scFv, V domains shown, scFv clone) VH: QVQLVQSGGGVVQPGRSLRLSCAASGFTFSSYGMHWVRQAPGKGLEWVAFIRYDGSNKYYADSVKGRFTISRDNSKNTLYLQMKSLRAEDTAVYYCKTHGSHDNWGQGTMVTVSS VL: SYVLTQPPSVSGTPGQRVTISCSGGRSNIGSNTVKWYQQLPGTAPKLLIYGNDQRPSGVPDRFSGSKSGTSASLAITGVQAEDEADYYCQSYDRGTHPLTIFGTGTKVTVL			1 nM	0.000508 s⁻¹	0.1 nM	
101-11 (scFv, V domains shown, scFv) VH: QVQLVQSGGGVVQPGRSLRLSCAASGFTFSSYGMHWVRQAPGKGLEWVAFIRYDGSNKYYADSVKGRFTISRDNSKNTLYLQMKSLRAEDTAVYYCTTHGSHDNWGQGTMVTVSS VL: SYVLTQPPSVSGTPGQRVTISCSGGRSNIGSNTVKWYQQLPGTAPKLLIYGNDQRPSGVPDRFSGSKSGTSASLAITGVQAEDEADYYCQSYDRGFTGSRVFGTGTKVTVL	30 nM and 20 nM	0.0045 s⁻¹				2 nM
